In the supplement of paper PMC10567573 one finds protein stability index data, which are given here for 5 proteins.

The nature of the data set: protein stability index of a GFP-peptide fusion (GPS, HEK-293T) (PSI 1-6); higher = more stable. Particulars: c terminus: native.
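Note: lentivirally expressed fusion library, cells FACS-sorted into six equal-sized GFP/DsRed ratio bins, PSI computed from sequencing read fractions per bin weighted by bin number.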

B1: TRPA1 addK (peptide)
chain: EQRNSRWNTVLRAVKAKTHHLEPK
Regarding B1, the protein stability index (parent: NP_015628.1) came to 5.03.

B2: POLD2 addK (peptide)
chain: CQPISFSGFGAEDDDLGGLGLGPK
Take B2: the protein stability index (parent: NP_006221.1) came to 4.81.

B3: SNF8 addK (peptide)
chain: LPALFTDLYSQEITAEEAREALPK
B3: the protein stability index (parent: NP_009172.2) was 5.17.

B4: BEX2 addK (peptide)
chain: HSLRAVSTDPPHHDHHDEFCLMPK
On to B4, for which the protein stability index (parent: NP_116010.1) was 4.67.

B5: PSMB5 addK (peptide)
chain: DGWIRVSSDNVADLHEKYSGSTPK
B5: the protein stability index (parent: NP_002788.1) was found to be 4.81.
